Assay results reported in PMC8844856, “Structural basis of cyclic oligoadenylate binding to the transcription factor Csa3 outlines cross talk between type III and type I CRISPR systems” (The Journal of Biological Chemistry, 2022).
Substitutions are numbered along the chain they refer to. In names and notes the source's numbering stands.

Legend:
[1] = molecular target: the molecule itself; test: SEC; Superdex 200 16/70 gel filtration in buffer F (20 mM Tris-HCl pH 8.0, 50 mM NaCl), against globular standards
[2] = molecular target: the molecule itself; test: AUC; sedimentation velocity, 20 °C, 40,000 rpm, 10 mM Na/KPO4 pH 5.8, 10 mM NaCl, 25 mM MgCl2; without cA4
[3] = molecular target: T1, Csa3Sso WT (Saccharolobus solfataricus P2, UniProt Q97Y88 1-237); test: EMSA; no cA4; faint shifted band; MST buffer not given in the material; Cy5 EMSA: 50 nM probe, 0.5-25 uM protein, 5% acrylamide TBE, 4 C; agarose EMSA: 2% TBE, room temperature; crystals: 20 mM; conditions: protein: recombinant; tags: N-terminal His6; chain copies: 2; label: 5' Cy5 on top strand; blunt
T1 sequence: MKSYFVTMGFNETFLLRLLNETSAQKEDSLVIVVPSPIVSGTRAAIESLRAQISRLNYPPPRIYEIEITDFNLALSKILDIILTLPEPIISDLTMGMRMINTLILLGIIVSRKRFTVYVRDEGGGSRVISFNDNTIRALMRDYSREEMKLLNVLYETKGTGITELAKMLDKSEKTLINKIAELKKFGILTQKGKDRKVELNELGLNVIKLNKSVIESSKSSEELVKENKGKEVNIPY

[4] = molecular target: T1, Csa3Sso WT; test: MST; no cOA; precipitate removed; MST buffer not given in the material; Cy5 EMSA: 50 nM probe, 0.5-25 uM protein, 5% acrylamide TBE, 4 C; agarose EMSA: 2% TBE, room temperature; crystals: 20 mM; conditions: protein: recombinant; tags: N-terminal His6; chain copies: 2; blunt
[5] = molecular target: T1, Csa3Sso WT; test: MST; only nonspecific signal at >=250 uM; MST buffer not given in the material; Cy5 EMSA: 50 nM probe, 0.5-25 uM protein, 5% acrylamide TBE, 4 C; agarose EMSA: 2% TBE, room temperature; crystals: 20 mM; conditions: protein: recombinant; tags: N-terminal His6; chain copies: 2; cyclic; no ends

B1: Saccharolobus solfataricus Csa3 (Csa3Sso), N-terminally His6-tagged, wildtype (natural protein, UniProt Q97Y88 1-237, looked up)
chain: T1 sequence
notes: Csa3 (CRISPR Apern 3, a Csa3a homolog) of Saccharolobus solfataricus strain P2, Sso1445, UniProtKB Q97Y88; full-length; the His6-tagged construct has 248 a.a; (MW theor 28.1 kDa); Synthetic gene in pBB75 (or pET21b); also called His6-Csa3Sso; Csa3Sso (WT); source: E. coli BL21(DE3)-pLysS, purified (lysate heated at 65 °C, HisTrap, Mono-Q flow-through, Cibacron Blue, Superdex 200); not shown: …
- stoichiometry N [1]: 2

B2: Csa3Sso-R98A mutant, N-terminally His6-tagged (natural protein, Saccharolobus solfataricus, UniProt Q97Y88 1-237, looked up)
chain: T1 sequence with R98A
notes: Csa3 of Saccharolobus solfataricus strain P2, Sso1445, UniProtKB Q97Y88; full-length, with R98A; Synthetic gene in pBB75; source: E. coli BL21(DE3)-pLysS, purified (lysate heated at 65 °C, HisTrap, Mono-Q flow-through, Cibacron Blue, Superdex 200); not shown: His6, N-terminal, kept
- stoichiometry N [2]: 2

B3: Cy5-PCas4a (dsDNA)
DNA 1: AAAGAATTCCCGAATTTACTAGGGAT
DNA 2: ATCCCTAGTAAATTCGGGAATTCTTT
modifications: 5' amino-modified top strand
- binding result [3]: binds

B4: PCas4a (dsDNA)
DNA 1: AAAGAATTCCCGAATTTACTAGGGAT
DNA 2: ATCCCTAGTAAATTCGGGAATTCTTT
- Kd [4]: 1620 ± 170 nM

Binder: AAA (ssRNA, cyclic tri-adenylate) [cA3]
- binding result [5]: no binding
